In patent US20230248800A1:

Molecular target: human V1a receptor (human) (UniProt P37288)
Assay: cell-based or functional assay

Sequence of human V1a receptor (human) (P37288 whole entry): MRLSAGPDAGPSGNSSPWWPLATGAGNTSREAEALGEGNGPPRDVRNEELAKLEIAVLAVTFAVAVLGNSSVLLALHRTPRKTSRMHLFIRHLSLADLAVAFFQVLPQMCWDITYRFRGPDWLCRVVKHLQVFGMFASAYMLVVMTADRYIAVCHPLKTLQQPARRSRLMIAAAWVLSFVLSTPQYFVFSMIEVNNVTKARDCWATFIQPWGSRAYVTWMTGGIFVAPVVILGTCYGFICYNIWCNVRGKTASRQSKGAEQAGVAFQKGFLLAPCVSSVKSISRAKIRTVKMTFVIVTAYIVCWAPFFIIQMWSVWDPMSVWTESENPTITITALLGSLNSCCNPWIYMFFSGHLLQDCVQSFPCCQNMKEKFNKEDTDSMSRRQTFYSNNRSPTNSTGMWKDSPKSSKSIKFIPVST

Q: “Lysine vasopressin (LVP) (from UniProt P01183 20-28) (peptide)” was tested. Which Estimated V1a EC50 (calcium flux) did it give?
A: The Estimated V1a EC50 (calcium flux) was 1.65 nM.

Q: What about the V1a Highest agonist effect (% of AVP) of the same substance?
A: The V1a Highest agonist effect (% of AVP) was 92.1 % of AVP.
